Results as given in the supplement of paper PMC9732359.
± gives the uncertainty stated by the source.

Assay: protein stability index of a GFP-peptide fusion (yeast GPS) (PSI 1-4); higher = more stable; sorted into four equal gates, so the index is relative within each strain
Conditions: ubr1∆
In short: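 For each peptide, the protein stability index sums the read frequency in every gate after multiplying it by the gate number. Read frequencies came from plasmids that were PCR-amplified from each gate and Illumina-sequenced, with reads assigned to strains by barcodes. The gates were four equal bins of GFP/Cherry fluorescence ratio applied to mid-log yeast in leucine-free medium carrying a pooled library of tiled 17-residue yeast protein peptides fused downstream of GFP on a Cherry-expressing plasmid.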
With GGRYVYPVHEAHKGQIV [SNU114] the protein stability index was 2.89 ± 0.063.
Work on GGSFGNREEFINKLVKA [RPL7B] yielded a protein stability index of 2.93 ± 0.078.
Sequence GGSGNGDDVVNDVQGID [RPP1] has a protein stability index of 3.1 ± 0.1.
GGSRGGGSNYMSNLPFG [RPC31] showed a protein stability index of 3.14 ± 0.17.
GHIGAYLIVAGVDPTGS [PUP1] gave a protein stability index of 1.65 ± 0.11.
In the case of GHVGSVQISNIPDIGDL [PRP8], the protein stability index is reported as 3.03 ± 0.046.
GIAIGLNKGKKVTSMTP [RPL36A] showed a protein stability index of 3.15 ± 0.1.
With GIDPQDLKKLNLNVYIQ [CDC53] the protein stability index was 1.19 ± 0.083.
With GILRRKSESDELQMRSF [RRP4] the protein stability index was 3.16 ± 0.084.
Work on GINPNTFRIFHNHDTGC [YDL088C/ASM4] yielded a protein stability index of 1.44 ± 0.047.
For GIRIKGKIVGFDEFMNV [SME1], the protein stability index was 3.12 ± 0.099.
Sequence GISKKTRIAGVVYHPSN [RPS8A] has a protein stability index of 2.403 ± 0.021.
For GKEFEARNLIEDEDDGE [RPC53], the protein stability index was 2.94 ± 0.14.
GKIPTLKISLIQIFRAH [PRP8] showed a protein stability index of 1.29 ± 0.041.
With GKLVVSQEMVPRYFSEA [SIR3] the protein stability index was 3.21 ± 0.12.
In the case of GKVTDVRSTIKFQLKKV [RPL1A], the protein stability index is reported as 3.46 ± 0.13.
Sequence GKVVGDKWESYLNLLQE [RPB10] has a protein stability index of 3.26 ± 0.055.
GLFGNKPALGSLGSSST [YGR119C/NUP57] gave a protein stability index of 3.21 ± 0.18.
In the case of GLFGNKPNNTANTGGGL [YGL172W/NUP49], the protein stability index is reported as 3.56 ± 0.11.
With GLGETSGDNHTQQSHEQ [RPT4] the protein stability index was 3.23 ± 0.22.
With GLLDLERVIVVTGFAEV [FAS2] the protein stability index was 2.16 ± 0.11.
In the case of GLLSQAIGCIERSDLLP [YJR042W/NUP85], the protein stability index is reported as 2.51 ± 0.069.
GLRTENVLDYFAESPFF [MED6] showed a protein stability index of 2.83 ± 0.047.
Work on GLSKEDDVRDFVIRREV [RPS6A] yielded a protein stability index of 3.68 ± 0.15.
Work on GLTNWAAAYATGLLIAR [RPL5] yielded a protein stability index of 1.1 ± 0.027.
With GLVDENKVEAFKSLYTF [YAR002W/NUP60] the protein stability index was 2.83 ± 0.043.
For GLWGFSTATRNVTMIDD [COR1], the protein stability index was 2.85 ± 0.066.
Work on GMPNMPGMPNMPGMPNM [SRP54] yielded a protein stability index of 3.14 ± 0.051.
For GMVKLNEYPVADAVTKD [REC8], the protein stability index was 3.36 ± 0.052.
Work on GNAPATPSSDQNPLPTR [SOH1] yielded a protein stability index of 3.17 ± 0.067.
Sequence GNENFEDFDVEHFSDEE [RPO26] has a protein stability index of 3.17 ± 0.082.
With GNGLVDENKVEAFKSLY [YAR002W/NUP60] the protein stability index was 3.3 ± 0.053.
GNIFADLLPNSFAKLVP [SMC2] showed a protein stability index of 2.62 ± 0.043.
Work on GNKLVELMRIISRNGDT [SMC1] yielded a protein stability index of 3.28 ± 0.25.
Sequence GNMCRGGRMFAPTKTWR [RPL4A] has a protein stability index of 2.34 ± 0.053.
Sequence GNRNSSSVFLPSRKDCM [BRR2] has a protein stability index of 3.22 ± 0.074.
Work on GNSFNKSSNDTIEHAAD [YCG1] yielded a protein stability index of 2.64 ± 0.057.
GPEITPEEATTIFSVMV [PRP8] showed a protein stability index of 2.6 ± 0.13.
In the case of GPGFKFVDLNEKELQNE [SRB4], the protein stability index is reported as 2.85 ± 0.14.
Work on GPSIYKTDPAGYYVGYK [SCL1] yielded a protein stability index of 3.38 ± 0.091.
With GPVGKECADLWPRVASN [RPL23A] the protein stability index was 3.23 ± 0.057.
GQEYPRIIGLSATLPNY [BRR2] gave a protein stability index of 1.81 ± 0.046.
For GQFVTLGCTLVTLLANV [RMP1], the protein stability index was 2.58 ± 0.048.
GQQKIILSKKWGFTNLD [RPL10] gave a protein stability index of 2.29 ± 0.21.
Work on GQRPDRATTYEKLTMVF [SIN4] yielded a protein stability index of 1.14 ± 0.11.
GQVSMSQFNGSGNGSNP [PGD1] showed a protein stability index of 3.2 ± 0.068.
GRETILSNFNADINLEE [SIR3] showed a protein stability index of 2.99 ± 0.07.
GRKHVAALRTVKSLVDN [RPL9A] showed a protein stability index of 2.96 ± 0.071.
In the case of GRLASTIAKQVLNGQKI [RPL16B], the protein stability index is reported as 2.58 ± 0.13.
GRLEIFKIHTAKVKKTG [RPT4] showed a protein stability index of 2.51 ± 0.097.
For GRPETYIWRYLPAPPVC [RPO31], the protein stability index was 2.02 ± 0.1.
GRPRYDTFGEGIIITDQ [BRR2] showed a protein stability index of 3.11 ± 0.11.
Sequence GRSNEIVKTTTKQRLDA [PRP8] has a protein stability index of 3.2 ± 0.052.
For GSADIGASVISLTKDKS [SIR4], the protein stability index was 3.21 ± 0.052.
With GSAINHHRIFDSSAHFK [YMR129W/POM152] the protein stability index was 2.71 ± 0.039.
Sequence GSDKQMFTQIYLERIEL [YML103C/NUP188] has a protein stability index of 1.53 ± 0.048.
GSENKRGSLDSEHVFDY [NUT1] gave a protein stability index of 3.57 ± 0.05.
GSFKYITARSAFVEFGA [SWP82] gave a protein stability index of 2.56 ± 0.056.
In the case of GSGAANENPYNNGVSNL [COR1], the protein stability index is reported as 2.79 ± 0.17.
For GSKISSNDLDKFFQKKI [YGL172W/NUP49], the protein stability index was 2.27 ± 0.057.
In the case of GSKSDGSAATSGFEFSK [RPN1], the protein stability index is reported as 3.1 ± 0.12.
GSRKVAGILRGYDIFLN [SMX2] gave a protein stability index of 1.98 ± 0.099.
In the case of GSSKPAFSFGAKPDEKK [YJL041W/NSP1], the protein stability index is reported as 3.29 ± 0.17.
In the case of GSVSEETELFEPGVLNT [ECM29], the protein stability index is reported as 2.67 ± 0.083.
In the case of GTAIGAIGAQSIGEPGT [RPO31], the protein stability index is reported as 3.15 ± 0.059.
Work on GTCFGGSKLEDMSKILV [RET1] yielded a protein stability index of 3.45 ± 0.056.
GTGKPEAIHDMFTYSQE [RPN2] showed a protein stability index of 2.72 ± 0.11.
With GTILSSAGDDGKVRLWK [YGL100W/SEH1] the protein stability index was 3.38 ± 0.059.
With GTLEGHNGWVTSLATSA [ASC1] the protein stability index was 1.67 ± 0.066.
GTLLREDDNTPAGHAGN [YDL088C/ASM4] gave a protein stability index of 3 ± 0.045.
GTNKDMILKLVCQVTKF [ECM29] showed a protein stability index of 1.59 ± 0.077.
Sequence GTNNISQHGQGNNPSWV [YDL088C/ASM4] has a protein stability index of 3.12 ± 0.054.
GTSTTHGSISPQEESVS [SIR3] showed a protein stability index of 2.48 ± 0.033.
GTVSRVNRLLSVIPLKG [RRP4] showed a protein stability index of 1.23 ± 0.048.
With GTYIQERNPTQRPQRRY [RPS10A] the protein stability index was 3.14 ± 0.032.
GVAMNPVDHPHGGGNHQ [RPL2A] gave a protein stability index of 3.25 ± 0.14.
Work on GVCNHAFHLHCINKWIK [HRT1] yielded a protein stability index of 2.16 ± 0.042.
GVDLKLKYSKRRSLKKQ [CSN12] showed a protein stability index of 3.05 ± 0.036.
Sequence GVEQLHYTGISQSACRE [SSN3] has a protein stability index of 2.56 ± 0.099.
For GVGKRKVWLDPNETSEI [RPL19A], the protein stability index was 3.04 ± 0.29.
Sequence GVTKGYKYKMRYVYAHF [RPL9A] has a protein stability index of 2.87 ± 0.16.
In the case of GVVRYVMESGAKGCEVV [RPS3], the protein stability index is reported as 1.34 ± 0.086.
For GVWDVDNPLRQIPHFNN [BRR2], the protein stability index was 3.13 ± 0.07.
With GWKPYYKLFIWLVVPTI [YML031W/NDC1] the protein stability index was 1.16 ± 0.044.
With GYDIFLNVVLDDAMEIN [SMX2] the protein stability index was 2.99 ± 0.06.
For GYLIQVLLTFLQDELHK [YCS4], the protein stability index was 3.24 ± 0.096.
GYQWGEENKDIMNVLSE [PRP8] gave a protein stability index of 3.16 ± 0.24.
HAKRKTVTSLDVVYALK [HHF1] showed a protein stability index of 3.12 ± 0.12.
In the case of HAMGGREGLIDTAVKTA [RPO21], the protein stability index is reported as 1.17 ± 0.054.
HCIDYLRKNKLGYARFI [SMC4] gave a protein stability index of 1.14 ± 0.04.
Work on HDEKLSDELHNQSTIYE [LIN1] yielded a protein stability index of 2.77 ± 0.097.
For HDSSNGLFQVLHNFESV [NUT1], the protein stability index was 3.242 ± 0.031.
For HDVLQKLNTLSEILSFD [YML103C/NUP188], the protein stability index was 3.14 ± 0.041.
